Measurements reported in the supplement of paper PMC9112550, “Optimization of the antimicrobial peptide Bac7 by deep mutational scanning” (BMC Biology, 2022).

Test system: Escherichia coli TOP10
Assay: shrunken log2 fold change of peptide-encoding DNA abundance (4.5 h post-induction vs induction); higher = less antimicrobial activity (less host growth inhibition)
Details: time post-induction: 4.5 h; library: site-saturation at positions 5, 18, 19, 20
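Note: peptides expressed intracellularly from a pBAD plasmid library in pooled LB shake-flask culture, induced with 0.3% L-arabinose, DNA abundance read by NGS, three biological replicates, DESeq2 with apeglm shrinkage.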

Sequence	shrunken log2 fold change
RRIRARPPRLPRPRPRPNLYPRP	-0.345
RRIRIRPPRLPRPRPRPDRYPRP	-0.032
RRIRSRPPRLPRPRPRPATWPRP	-0.136
RRIRVRPPRLPRPRPRPLYIPRP	-0.555
RRIRERPPRLPRPRPRPYQTPRP	-0.135
RRIRQRPPRLPRPRPRPRTKPRP	0.0706
RRIRWRPPRLPRPRPRPTGLPRP	0.0239
RRIRPRPPRLPRPRPRPQGHPRP	0.05
RRIRDRPPRLPRPRPRPWSPPRP	0.127
RRIRYRPPRLPRPRPRPIAPPRP	-0.0464
RRIRPRPPRLPRPRPRPTVDPRP	0.0336
RRIRTRPPRLPRPRPRPYKEPRP	-0.228
RRIRKRPPRLPRPRPRPDMHPRP	0.051
RRIRTRPPRLPRPRPRPEIMPRP	-0.468
RRIRCRPPRLPRPRPRPCMSPRP	-0.185
RRIRGRPPRLPRPRPRPRCAPRP	1.09
RRIRSRPPRLPRPRPRPSHQPRP	-0.284
RRIRERPPRLPRPRPRPSFRPRP	-0.431
RRIRDRPPRLPRPRPRPRCSPRP	-0.0967
RRIRDRPPRLPRPRPRPSDTPRP	-0.343
RRIRVRPPRLPRPRPRPCMTPRP	0.0668
RRIRSRPPRLPRPRPRPIVKPRP	-0.143
RRIRPRPPRLPRPRPRPAWPPRP	0.6
RRIRLRPPRLPRPRPRPVPDPRP	0.00559
RRIRGRPPRLPRPRPRPLIRPRP	0.0808

Sequence	shrunken log2 fold change
RRIRMRPPRLPRPRPRPSACPRP	1.99
RRIRFRPPRLPRPRPRPLLFPRP	-0.315
RRIRYRPPRLPRPRPRPCSSPRP	-0.941
RRIRGRPPRLPRPRPRPWFEPRP	-0.111
RRIRNRPPRLPRPRPRPPKDPRP	0.131
RRIRDRPPRLPRPRPRPPVDPRP	0.361
RRIRGRPPRLPRPRPRPHVLPRP	-0.00476
RRIRPRPPRLPRPRPRPNRPPRP	0.274
RRIRPRPPRLPRPRPRPLANPRP	-0.0209
RRIRTRPPRLPRPRPRPEYHPRP	-0.00732
RRIRNRPPRLPRPRPRPWFQPRP	-0.109
RRIRSRPPRLPRPRPRPATAPRP	0.322
RRIRVRPPRLPRPRPRPLGIPRP	-0.105
RRIRSRPPRLPRPRPRPGIKPRP	-0.0207
RRIRLRPPRLPRPRPRPAWQPRP	0.202
RRIRIRPPRLPRPRPRPYMIPRP	-0.307
RRIRCRPPRLPRPRPRPDKQPRP	-0.0405
RRIRMRPPRLPRPRPRPFYFPRP	-0.569
RRIRKRPPRLPRPRPRPNRKPRP	0.0065
RRIRHRPPRLPRPRPRPQVQPRP	0.0789
RRIRWRPPRLPRPRPRPTFGPRP	-0.0806
RRIRCRPPRLPRPRPRPAGEPRP	0.598
RRIRKRPPRLPRPRPRPMPKPRP	0.421
RRIRMRPPRLPRPRPRPFQNPRP	2.76
RRIRKRPPRLPRPRPRPGQWPRP	0.181

Sequence	shrunken log2 fold change
RRIRYRPPRLPRPRPRPHVVPRP	-0.261
RRIRARPPRLPRPRPRPWSMPRP	-0.198
RRIRGRPPRLPRPRPRPNTVPRP	-0.0703
RRIRTRPPRLPRPRPRPDFTPRP	-0.0888
RRIRPRPPRLPRPRPRPNCEPRP	0.117
RRIRYRPPRLPRPRPRPSAPPRP	-0.353
RRIRKRPPRLPRPRPRPARLPRP	0.434
RRIRLRPPRLPRPRPRPPDVPRP	-0.0115
RRIRSRPPRLPRPRPRPVAPPRP	0.397
RRIRDRPPRLPRPRPRPPFEPRP	0.254
RRIRERPPRLPRPRPRPMQQPRP	-0.0321
RRIRPRPPRLPRPRPRPATGPRP	0.0771
RRIRSRPPRLPRPRPRPLFTPRP	-0.0175
RRIRPRPPRLPRPRPRPTFQPRP	0.408
RRIRERPPRLPRPRPRPGKRPRP	0.093
RRIRARPPRLPRPRPRPDVMPRP	0.0669
RRIRHRPPRLPRPRPRPFCEPRP	-0.394
RRIRLRPPRLPRPRPRPIQGPRP	-0.226
RRIRNRPPRLPRPRPRPLRSPRP	0.119
RRIRERPPRLPRPRPRPFQDPRP	0.0039
RRIRSRPPRLPRPRPRPFKRPRP	-0.013
RRIRLRPPRLPRPRPRPGPSPRP	0.25
RRIRNRPPRLPRPRPRPFKGPRP	-0.0902
RRIRLRPPRLPRPRPRPENYPRP	-0.041
RRIRGRPPRLPRPRPRPGLIPRP	-0.0196

Sequence	shrunken log2 fold change
RRIRPRPPRLPRPRPRPFWNPRP	-0.478
RRIRVRPPRLPRPRPRPHQMPRP	-0.0715
RRIRWRPPRLPRPRPRPRVLPRP	0.381
RRIRCRPPRLPRPRPRPDNVPRP	-0.0772
RRIRDRPPRLPRPRPRPPFSPRP	0.0121
RRIRARPPRLPRPRPRPPTYPRP	0.0408
RRIRRRPPRLPRPRPRPWCHPRP	-0.0754
RRIRTRPPRLPRPRPRPDSAPRP	0.0773
RRIRERPPRLPRPRPRPCVVPRP	0.0441
RRIRPRPPRLPRPRPRPFWTPRP	-0.0762
RRIRWRPPRLPRPRPRPGTVPRP	-0.148
RRIRQRPPRLPRPRPRPRPEPRP	0.646
RRIRDRPPRLPRPRPRPDWQPRP	0.252
RRIRPRPPRLPRPRPRPNSFPRP	-0.251
RRIRRRPPRLPRPRPRPLHNPRP	0.188
RRIRMRPPRLPRPRPRPWKLPRP	-0.133
RRIRPRPPRLPRPRPRPNDHPRP	-0.386
RRIRSRPPRLPRPRPRPCPCPRP	-0.138
RRIRTRPPRLPRPRPRPKMSPRP	0.116
RRIRIRPPRLPRPRPRPVHYPRP	-0.497
RRIRMRPPRLPRPRPRPYDNPRP	0.213
RRIRERPPRLPRPRPRPIVRPRP	-0.0604
RRIRWRPPRLPRPRPRPMPCPRP	0.113
RRIRCRPPRLPRPRPRPWMIPRP	-0.0852
RRIRNRPPRLPRPRPRPWMSPRP	-0.0131

Sequence	shrunken log2 fold change
RRIRMRPPRLPRPRPRPEHFPRP	0.0315
RRIRPRPPRLPRPRPRPDFQPRP	0.262
RRIRWRPPRLPRPRPRPAMKPRP	-0.0119
RRIRWRPPRLPRPRPRPYIHPRP	-0.405
RRIRMRPPRLPRPRPRPKNKPRP	0.408
RRIRMRPPRLPRPRPRPDEFPRP	1.49
RRIRMRPPRLPRPRPRPPACPRP	1.22
RRIRWRPPRLPRPRPRPNNFPRP	-0.0323
RRIRGRPPRLPRPRPRPKTIPRP	0.445
RRIRCRPPRLPRPRPRPDYDPRP	0.0933
RRIRRRPPRLPRPRPRPEWSPRP	0.274
RRIRFRPPRLPRPRPRPDCMPRP	-0.286
RRIRLRPPRLPRPRPRPALAPRP	0.305
RRIRERPPRLPRPRPRPEWHPRP	0.0244
RRIRNRPPRLPRPRPRPGNNPRP	-0.492
RRIRMRPPRLPRPRPRPYWTPRP	-0.354
RRIRKRPPRLPRPRPRPRRFPRP	0.39
RRIRWRPPRLPRPRPRPKCLPRP	-0.197
RRIRWRPPRLPRPRPRPNCPPRP	-0.125
RRIRQRPPRLPRPRPRPAIVPRP	-0.0943
RRIRPRPPRLPRPRPRPHEIPRP	-0.192
RRIRLRPPRLPRPRPRPKCNPRP	-0.647
RRIRFRPPRLPRPRPRPMMDPRP	0.0995
RRIRCRPPRLPRPRPRPKCRPRP	-0.281
RRIRVRPPRLPRPRPRPMDSPRP	-0.134

Sequence	shrunken log2 fold change
RRIRMRPPRLPRPRPRPKARPRP	1.61
RRIRMRPPRLPRPRPRPKHWPRP	0.91
RRIRMRPPRLPRPRPRPINFPRP	-0.0648
RRIRIRPPRLPRPRPRPHWDPRP	-0.248
RRIRSRPPRLPRPRPRPRVQPRP	-0.25
RRIRERPPRLPRPRPRPYLRPRP	-0.319
RRIRFRPPRLPRPRPRPGYRPRP	-0.0212
RRIRERPPRLPRPRPRPHRYPRP	0.0893
RRIRYRPPRLPRPRPRPWFPPRP	-0.523
RRIRPRPPRLPRPRPRPIPKPRP	0.28
RRIRDRPPRLPRPRPRPVCIPRP	0.0226
RRIRVRPPRLPRPRPRPQWVPRP	-0.222
RRIRARPPRLPRPRPRPEGHPRP	0.223
RRIRKRPPRLPRPRPRPKILPRP	0.362
RRIRKRPPRLPRPRPRPQEAPRP	-0.000925
RRIRIRPPRLPRPRPRPGKLPRP	-0.0215
RRIRARPPRLPRPRPRPWSGPRP	-0.0707
RRIRCRPPRLPRPRPRPAKTPRP	-0.0664
RRIRLRPPRLPRPRPRPQWVPRP	-0.0367
RRIRDRPPRLPRPRPRPVKHPRP	-0.0698
RRIRSRPPRLPRPRPRPFCTPRP	-0.375
RRIRHRPPRLPRPRPRPRWLPRP	0.144
RRIRLRPPRLPRPRPRPHWRPRP	0.147
RRIRSRPPRLPRPRPRPNSVPRP	-0.509
RRIRARPPRLPRPRPRPDAQPRP	1.35
